{"source": "the supplement of paper PMC10567573", "parents": {"B1": {"name": "DFFB (parent)", "chain": "TLVEAIKEQDGREVDWEYFYGLLF"}}, "data": [{"variants_of": "B1", "assay": "protein stability index of a GFP-peptide fusion (GPS, HEK-293T) (PSI 1-6); higher = more stable", "settings": "c terminus: a fixed tail appended", "values": [{"variant": "TLVIAIKEQDGREVDWEYFYGLLF", "note": "[E4I]", "protein stability index": 1.57}, {"variant": "TLVVAIKEQDGREVDWEYFYGLLF", "note": "[E4V]", "protein stability index": 2.87}, {"variant": "TLVNAIKEQDGREVDWEYFYGLLF", "note": "[E4N]", "protein stability index": 2.11}, {"variant": "TLVWAIKEQDGREVDWEYFYGLLF", "note": "[E4W]", "protein stability index": 1.76}, {"variant": "TLVQAIKEQDGREVDWEYFYGLLF", "note": "[E4Q]", "protein stability index": 1.97}, {"variant": "TLVPAIKEQDGREVDWEYFYGLLF", "note": "[E4P]", "protein stability index": 2.08}, {"variant": "TLVCAIKEQDGREVDWEYFYGLLF", "note": "[E4C]", "protein stability index": 2.92}, {"variant": "TLVGAIKEQDGREVDWEYFYGLLF", "note": "[E4G]", "protein stability index": 2.26}, {"variant": "TLVEAIKEQDGREVDWEYFYGDLF", "note": "[L22D]", "protein stability index": 2.62}, {"variant": "TLVEAIKEQDGREVDWEYFYGELF", "note": "[L22E]", "protein stability index": 2.51}, {"variant": "TLVEAIKEQDGREVDWEYFYGVLF", "note": "[L22V]", "protein stability index": 1.96}, {"variant": "TLVEAIKEQDGREVDWEYFYGYLF", "note": "[L22Y]", "protein stability index": 1.86}, {"variant": "TLVEAIKEQDGREVDWEYFYGTLF", "note": "[L22T]", "protein stability index": 2.58}, {"variant": "TLVEAIKEQDGREVDWEYFYGPLF", "note": "[L22P]", "protein stability index": 3.28}, {"variant": "TLVEAIKEQDGREVDWEYFYGMLF", "note": "[L22M]", "protein stability index": 1.85}, {"variant": "TLVEAIKEQDGREVDWEYFYGQLF", "note": "[L22Q]", "protein stability index": 2.94}, {"variant": "TLVEAIKEQDGREVDWEYFYGCLF", "note": "[L22C]", "protein stability index": 2.04}, {"variant": "TLVEAIKEQDGREVDWEYFYGLLP", "note": "[F24P]", "protein stability index": 2.53}, {"variant": "TLVEAIKEQDGREVDWEYFYGLLC", "note": "[F24C]", "protein stability index": 2.23}, {"variant": "TLVEAIKEQDGREVDWEYFYGLLK", "note": "[F24K]", "protein stability index": 1.79}, {"variant": "TLVEAIKEQDGREVDWEYFYGLLL", "note": "[F24L]", "protein stability index": 1.7}, {"variant": "TLVEAIKEQDGREVDWEYFYGLLS", "note": "[F24S]", "protein stability index": 2.52}, {"variant": "TLVEAIKEQDGREVDWEYFYGLLH", "note": "[F24H]", "protein stability index": 2.2}, {"variant": "TLVEAIKEQDGREVDWEYFYGLLT", "note": "[F24T]", "protein stability index": 2.42}, {"variant": "TLVEAIKEQDGREVDWEYFYGLLW", "note": "[F24W]", "protein stability index": 1.07}, {"variant": "TLVEAIKEQDGREVDWEYFYGLLD", "note": "[F24D]", "protein stability index": 2.21}, {"variant": "TLVEAQKEQDGREVDWEYFYGLLF", "note": "[I6Q]", "protein stability index": 2.32}, {"variant": "TLVEANKEQDGREVDWEYFYGLLF", "note": "[I6N]", "protein stability index": 2.2}, {"variant": "TLVEAPKEQDGREVDWEYFYGLLF", "note": "[I6P]", "protein stability index": 2.17}, {"variant": "TLVEATKEQDGREVDWEYFYGLLF", "note": "[I6T]", "protein stability index": 2.01}, {"variant": "TLVEARKEQDGREVDWEYFYGLLF", "note": "[I6R]", "protein stability index": 2.16}, {"variant": "TLVEASKEQDGREVDWEYFYGLLF", "note": "[I6S]", "protein stability index": 1.89}, {"variant": "TLVEAFKEQDGREVDWEYFYGLLF", "note": "[I6F]", "protein stability index": 2.38}, {"variant": "TLVEACKEQDGREVDWEYFYGLLF", "note": "[I6C]", "protein stability index": 2.24}, {"variant": "TLVEAIKEQDGREVNWEYFYGLLF", "note": "[D15N]", "protein stability index": 1.9}, {"variant": "TLVEAIKEQDGREVWWEYFYGLLF", "note": "[D15W]", "protein stability index": 1.88}, {"variant": "TLVEAIKEQDGREVMWEYFYGLLF", "note": "[D15M]", "protein stability index": 1.69}, {"variant": "TLVEAIKEQDGREVCWEYFYGLLF", "note": "[D15C]", "protein stability index": 1.9}, {"variant": "TLVEAIKEQDGREVHWEYFYGLLF", "note": "[D15H]", "protein stability index": 1.51}, {"variant": "TLVEAIKEQDGREVYWEYFYGLLF", "note": "[D15Y]", "protein stability index": 1.19}, {"variant": "TLVEAICEQDGREVDWEYFYGLLF", "note": "[K7C]", "protein stability index": 1.98}, {"variant": "TLVEAIDEQDGREVDWEYFYGLLF", "note": "[K7D]", "protein stability index": 1.58}, {"variant": "TLVEAIIEQDGREVDWEYFYGLLF", "note": "[K7I]", "protein stability index": 2.28}, {"variant": "TLVEAIHEQDGREVDWEYFYGLLF", "note": "[K7H]", "protein stability index": 1.9}, {"variant": "TLVEAITEQDGREVDWEYFYGLLF", "note": "[K7T]", "protein stability index": 2.19}, {"variant": "TLVEAIAEQDGREVDWEYFYGLLF", "note": "[K7A]", "protein stability index": 2.31}, {"variant": "TLVEAIPEQDGREVDWEYFYGLLF", "note": "[K7P]", "protein stability index": 2.3}, {"variant": "TLVEAIFEQDGREVDWEYFYGLLF", "note": "[K7F]", "protein stability index": 2.99}, {"variant": "TLVEAIKEADGREVDWEYFYGLLF", "note": "[Q9A]", "protein stability index": 1.37}, {"variant": "TLVEAIKELDGREVDWEYFYGLLF", "note": "[Q9L]", "protein stability index": 3.05}, {"variant": "TLVEAIKEWDGREVDWEYFYGLLF", "note": "[Q9W]", "protein stability index": 2.59}, {"variant": "TLVEAIKERDGREVDWEYFYGLLF", "note": "[Q9R]", "protein stability index": 2.27}, {"variant": "TLVEAIKEDDGREVDWEYFYGLLF", "note": "[Q9D]", "protein stability index": 1.97}, {"variant": "TLVEAIKEKDGREVDWEYFYGLLF", "note": "[Q9K]", "protein stability index": 1.55}, {"variant": "TLVEAIKEMDGREVDWEYFYGLLF", "note": "[Q9M]", "protein stability index": 1.74}, {"variant": "TLVEAIKEFDGREVDWEYFYGLLF", "note": "[Q9F]", "protein stability index": 2.73}, {"variant": "TLVEAIKEIDGREVDWEYFYGLLF", "note": "[Q9I]", "protein stability index": 1.87}, {"variant": "TLVEAIKEYDGREVDWEYFYGLLF", "note": "[Q9Y]", "protein stability index": 1.08}, {"variant": "TLVEEIKEQDGREVDWEYFYGLLF", "note": "[A5E]", "protein stability index": 2.29}, {"variant": "TLVEMIKEQDGREVDWEYFYGLLF", "note": "[A5M]", "protein stability index": 2.35}, {"variant": "TLVEDIKEQDGREVDWEYFYGLLF", "note": "[A5D]", "protein stability index": 2.54}, {"variant": "TLVEQIKEQDGREVDWEYFYGLLF", "note": "[A5Q]", "protein stability index": 2.4}, {"variant": "TLVEFIKEQDGREVDWEYFYGLLF", "note": "[A5F]", "protein stability index": 1.89}, {"variant": "TLVEPIKEQDGREVDWEYFYGLLF", "note": "[A5P]", "protein stability index": 2.74}, {"variant": "TLVERIKEQDGREVDWEYFYGLLF", "note": "[A5R]", "protein stability index": 2.29}, {"variant": "TNVEAIKEQDGREVDWEYFYGLLF", "note": "[L2N]", "protein stability index": 2.31}, {"variant": "TPVEAIKEQDGREVDWEYFYGLLF", "note": "[L2P]", "protein stability index": 2.41}, {"variant": "TTVEAIKEQDGREVDWEYFYGLLF", "note": "[L2T]", "protein stability index": 2.2}, {"variant": "TSVEAIKEQDGREVDWEYFYGLLF", "note": "[L2S]", "protein stability index": 3.15}, {"variant": "TDVEAIKEQDGREVDWEYFYGLLF", "note": "[L2D]", "protein stability index": 2.17}, {"variant": "TQVEAIKEQDGREVDWEYFYGLLF", "note": "[L2Q]", "protein stability index": 1.41}, {"variant": "TAVEAIKEQDGREVDWEYFYGLLF", "note": "[L2A]", "protein stability index": 3.03}, {"variant": "TGVEAIKEQDGREVDWEYFYGLLF", "note": "[L2G]", "protein stability index": 2.5}, {"variant": "TYVEAIKEQDGREVDWEYFYGLLF", "note": "[L2Y]", "protein stability index": 1.71}, {"variant": "TFVEAIKEQDGREVDWEYFYGLLF", "note": "[L2F]", "protein stability index": 1.95}, {"variant": "TVVEAIKEQDGREVDWEYFYGLLF", "note": "[L2V]", "protein stability index": 2.4}, {"variant": "TRVEAIKEQDGREVDWEYFYGLLF", "note": "[L2R]", "protein stability index": 2.77}, {"variant": "TIVEAIKEQDGREVDWEYFYGLLF", "note": "[L2I]", "protein stability index": 2.35}, {"variant": "TLVEAIKEQDGREVDYEYFYGLLF", "note": "[W16Y]", "protein stability index": 1.72}, {"variant": "TLVEAIKEQDGREVDCEYFYGLLF", "note": "[W16C]", "protein stability index": 2.46}, {"variant": "TLVEAIKEQDGREVDFEYFYGLLF", "note": "[W16F]", "protein stability index": 1.93}, {"variant": "TLVEAIKEQDGREVDGEYFYGLLF", "note": "[W16G]", "protein stability index": 2.44}, {"variant": "TLVEAIKEQDGREVDTEYFYGLLF", "note": "[W16T]", "protein stability index": 3.12}, {"variant": "TLVEAIKEQDGREVDPEYFYGLLF", "note": "[W16P]", "protein stability index": 2.44}, {"variant": "TLVEAIKEQDGREVDLEYFYGLLF", "note": "[W16L]", "protein stability index": 1.66}, {"variant": "TLVEAIKEQDGREVDEEYFYGLLF", "note": "[W16E]", "protein stability index": 2.19}, {"variant": "TLVEAIKEQDGREVDNEYFYGLLF", "note": "[W16N]", "protein stability index": 2.63}, {"variant": "TLVEAIKEQDFREVDWEYFYGLLF", "note": "[G11F]", "protein stability index": 1.02}, {"variant": "TLVEAIKEQDMREVDWEYFYGLLF", "note": "[G11M]", "protein stability index": 2.13}, {"variant": "TLVEAIKEQDKREVDWEYFYGLLF", "note": "[G11K]", "protein stability index": 1.61}, {"variant": "TLVEAIKEQDQREVDWEYFYGLLF", "note": "[G11Q]", "protein stability index": 2.04}, {"variant": "TLVEAIKEQDSREVDWEYFYGLLF", "note": "[G11S]", "protein stability index": 1.7}, {"variant": "TLVEAIKEQDHREVDWEYFYGLLF", "note": "[G11H]", "protein stability index": 2.04}, {"variant": "TLVEAIKEQDPREVDWEYFYGLLF", "note": "[G11P]", "protein stability index": 2.44}]}]}
